Measured values published in patent publication US20250163162A1.
Values belong to the binder of their own block, whether it stands above or below them.

Biological target: T1, IL10Rα and IL2Rγ on human primary cells (CD8 T cells, CD4 T cells, monocytes) (human) (UniProt Q13651)
T1 sequence (looked up) 1: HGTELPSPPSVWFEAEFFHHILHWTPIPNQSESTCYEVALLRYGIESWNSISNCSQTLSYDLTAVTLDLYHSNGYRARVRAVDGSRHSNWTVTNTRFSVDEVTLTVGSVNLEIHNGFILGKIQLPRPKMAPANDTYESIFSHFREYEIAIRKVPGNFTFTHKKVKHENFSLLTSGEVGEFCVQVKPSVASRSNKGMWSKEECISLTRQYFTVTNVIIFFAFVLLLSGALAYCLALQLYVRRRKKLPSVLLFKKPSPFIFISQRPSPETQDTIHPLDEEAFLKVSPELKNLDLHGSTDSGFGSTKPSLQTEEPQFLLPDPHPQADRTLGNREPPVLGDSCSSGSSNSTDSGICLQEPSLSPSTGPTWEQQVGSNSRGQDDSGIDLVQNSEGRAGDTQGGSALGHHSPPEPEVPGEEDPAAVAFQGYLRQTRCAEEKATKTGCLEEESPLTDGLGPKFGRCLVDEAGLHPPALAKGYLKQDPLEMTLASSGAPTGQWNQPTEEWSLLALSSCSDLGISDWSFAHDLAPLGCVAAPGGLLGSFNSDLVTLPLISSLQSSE
T1 sequence (looked up) 2: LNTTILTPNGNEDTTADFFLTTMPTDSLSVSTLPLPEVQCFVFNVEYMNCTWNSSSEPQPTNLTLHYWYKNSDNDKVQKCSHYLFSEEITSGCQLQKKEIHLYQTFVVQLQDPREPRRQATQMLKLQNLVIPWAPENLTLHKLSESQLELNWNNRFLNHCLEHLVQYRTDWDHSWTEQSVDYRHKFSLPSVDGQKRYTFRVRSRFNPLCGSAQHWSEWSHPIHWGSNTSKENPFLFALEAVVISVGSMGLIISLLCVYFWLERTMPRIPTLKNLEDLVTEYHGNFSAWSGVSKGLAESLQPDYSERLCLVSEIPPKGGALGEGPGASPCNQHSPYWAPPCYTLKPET
Assay: cell-based or functional assay

B3: hIL10Ra_VHH14-hIL2Rg_VHH19, linker GGGSGGGS, tag his (bispecific antibody, not shown: small tags and cut ends)
chain: QVQLQESGGGSVQAGGSLRLSCGASGYTYSSYCMGWFRQVPGKEREGVAVIDSDGSTSYADSVKGRFTISKDNGKNTLYLQMNSLKPEDTAMYYCAADLGHYRPPCGVLYLGMDYWGKGTQVTVSSGGGSGGGSQVQLQESGGGSVQAGGSLRLSCTASGFTFDDREMNWYRQAPGNECELVSTISSDGSTYYADSVKGRFTISQDNAKNTVYLQMDSVKPEDTAVYYCAADFMIAIQAPGAGCWGQGTQVTVSS
- pSTAT3 (MFI) in CD4 T cells at 0.0001 µM: 10700 MFI
- pSTAT3 (MFI) in CD4 T cells at 0.0013 µM: 12000 MFI
- pSTAT3 (MFI) in CD4 T cells at 0.01 µM: 9550 MFI
- pSTAT3 (MFI) in CD4 T cells at 0.1 µM: 11300 MFI
- pSTAT3 (MFI) in CD4 T cells at 1 µM: 12700 MFI
- pSTAT3 (MFI) in CD4 T cells at 10 µM: 13200 MFI
- pSTAT3 (MFI) in CD4 T cells at 100 µM: 11600 MFI
- pSTAT3 (MFI) in CD8 T cells at 0.0001 µM: 7060 MFI
- pSTAT3 (MFI) in CD8 T cells at 0.001 µM: 7520 MFI
- pSTAT3 (MFI) in CD8 T cells at 0.01 µM: 6330 MFI
- pSTAT3 (MFI) in CD8 T cells at 0.1 µM: 7070 MFI
- pSTAT3 (MFI) in CD8 T cells at 1 µM: 7870 MFI
- pSTAT3 (MFI) in CD8 T cells at 10 µM: 8430 MFI
- pSTAT3 (MFI) in CD8 T cells at 100 µM: 7970 MFI
- pSTAT3 (MFI) in monocytes at 0.0001 µM: 4670 MFI
- pSTAT3 (MFI) in monocytes at 0.001 µM: 4820 MFI
- pSTAT3 (MFI) in monocytes at 0.01 µM: 4360 MFI
- pSTAT3 (MFI) in monocytes at 0.1 µM: 4420 MFI
- pSTAT3 (MFI) in monocytes at 1 µM: 4760 MFI
- pSTAT3 (MFI) in monocytes at 10 µM: 4880 MFI
- pSTAT3 (MFI) in monocytes at 100 µM: 4620 MFI

B4: hIL10Ra_VHH14-hIL2Rg_VHH19, linker GGSGGS, tag his (bispecific antibody, not shown: small tags and cut ends)
chain: QVQLQESGGGSVQAGGSLRLSCGASGYTYSSYCMGWFRQVPGKEREGVAVIDSDGSTSYADSVKGRFTISKDNGKNTLYLQMNSLKPEDTAMYYCAADLGHYRPPCGVLYLGMDYWGKGTQVTVSSGGSGGSQVQLQESGGGSVQAGGSLRLSCTASGFTFDDREMNWYRQAPGNECELVSTISSDGSTYYADSVKGRFTISQDNAKNTVYLQMDSVKPEDTAVYYCAADFMIAIQAPGAGCWGQGTQVTVSS
- pSTAT3 (MFI) in CD4 T cells at 0.0001 µM: 13200 MFI
- pSTAT3 (MFI) in CD4 T cells at 0.001 µM: 13900 MFI
- pSTAT3 (MFI) in CD4 T cells at 0.01 µM: 12800 MFI
- pSTAT3 (MFI) in CD4 T cells at 0.1 µM: 13600 MFI
- pSTAT3 (MFI) in CD4 T cells at 1 µM: 13000 MFI
- pSTAT3 (MFI) in CD4 T cells at 10 µM: 11800 MFI
- pSTAT3 (MFI) in CD4 T cells at 100 µM: 10200 MFI
- pSTAT3 (MFI) in CD8 T cells at 0.0001 µM: 7960 MFI
- pSTAT3 (MFI) in CD8 T cells at 0.001 µM: 8500 MFI
- pSTAT3 (MFI) in CD8 T cells at 0.01 µM: 7660 MFI
- pSTAT3 (MFI) in CD8 T cells at 0.1 µM: 8160 MFI
- pSTAT3 (MFI) in CD8 T cells at 1 µM: 7720 MFI
- pSTAT3 (MFI) in CD8 T cells at 10 µM: 8300 MFI
- pSTAT3 (MFI) in CD8 T cells at 100 µM: 7000 MFI
- pSTAT3 (MFI) in monocytes at 0.0001 µM: 4220 MFI
- pSTAT3 (MFI) in monocytes at 0.001 µM: 4680 MFI
- pSTAT3 (MFI) in monocytes at 0.01 µM: 4560 MFI
- pSTAT3 (MFI) in monocytes at 0.1 µM: 4470 MFI
- pSTAT3 (MFI) in monocytes at 1 µM: 4750 MFI
- pSTAT3 (MFI) in monocytes at 10 µM: 4890 MFI
- pSTAT3 (MFI) in monocytes at 100 µM: 4730 MFI

B5: hIL10Ra_VHH14-hIL2Rg_VHH19, linker GGGS, tag his (bispecific antibody, not shown: small tags and cut ends)
chain: QVQLQESGGGSVQAGGSLRLSCGASGYTYSSYCMGWFRQVPGKEREGVAVIDSDGSTSYADSVKGRFTISKDNGKNTLYLQMNSLKPEDTAMYYCAADLGHYRPPCGVLYLGMDYWGKGTQVTVSSGGGSQVQLQESGGGSVQAGGSLRLSCTASGFTFDDREMNWYRQAPGNECELVSTISSDGSTYYADSVKGRFTISQDNAKNTVYLQMDSVKPEDTAVYYCAADFMIAIQAPGAGCWGQGTQVTVSS
- pSTAT3 (MFI) in CD4 T cells at 0.0001 µM: 11900 MFI
- pSTAT3 (MFI) in CD4 T cells at 0.001 µM: 12100 MFI
- pSTAT3 (MFI) in CD4 T cells at 0.01 µM: 11700 MFI
- pSTAT3 (MFI) in CD4 T cells at 0.1 µM: 9670 MFI
- pSTAT3 (MFI) in CD4 T cells at 1 µM: 9590 MFI
- pSTAT3 (MFI) in CD4 T cells at 10 µM: 11400 MFI
- pSTAT3 (MFI) in CD4 T cells at 100 µM: 14700 MFI
- pSTAT3 (MFI) in CD8 T cells at 0.0001 µM: 7210 MFI
- pSTAT3 (MFI) in CD8 T cells at 0.001 µM: 7460 MFI
- pSTAT3 (MFI) in CD8 T cells at 0.01 µM: 7200 MFI
- pSTAT3 (MFI) in CD8 T cells at 0.1 µM: 6580 MFI
- pSTAT3 (MFI) in CD8 T cells at 1 µM: 6500 MFI
- pSTAT3 (MFI) in CD8 T cells at 10 µM: 7930 MFI
- pSTAT3 (MFI) in CD8 T cells at 100 µM: 9970 MFI
- pSTAT3 (MFI) in monocytes at 0.0001 µM: 4150 MFI
- pSTAT3 (MFI) in monocytes at 0.001 µM: 4510 MFI
- pSTAT3 (MFI) in monocytes at 0.01 µM: 4360 MFI
- pSTAT3 (MFI) in monocytes at 0.1 µM: 4280 MFI
- pSTAT3 (MFI) in monocytes at 1 µM: 4640 MFI
- pSTAT3 (MFI) in monocytes at 10 µM: 4840 MFI
- pSTAT3 (MFI) in monocytes at 100 µM: 4880 MFI

Further lines, results first:

- pSTAT3 (MFI) in CD4 T cells at 0.0001 µM: 11700 MFI
- pSTAT3 (MFI) in CD4 T cells at 0.001 µM: 12800 MFI
- pSTAT3 (MFI) in CD4 T cells at 0.01 µM: 13600 MFI
- pSTAT3 (MFI) in CD4 T cells at 0.1 µM: 10900 MFI
- pSTAT3 (MFI) in CD4 T cells at 1 µM: 12900 MFI
- pSTAT3 (MFI) in CD4 T cells at 10 µM: 12600 MFI
- pSTAT3 (MFI) in CD4 T cells at 100 µM: 11600 MFI
- pSTAT3 (MFI) in CD8 T cells at 0.0001 µM: 7400 MFI
- pSTAT3 (MFI) in CD8 T cells at 0.001 µM: 8110 MFI
- pSTAT3 (MFI) in CD8 T cells at 0.01 µM: 8110 MFI
- pSTAT3 (MFI) in CD8 T cells at 0.1 µM: 7100 MFI
- pSTAT3 (MFI) in CD8 T cells at 1 µM: 8200 MFI
- pSTAT3 (MFI) in CD8 T cells at 10 µM: 8410 MFI
- pSTAT3 (MFI) in CD8 T cells at 100 µM: 7900 MFI
- pSTAT3 (MFI) in monocytes at 0.0001 µM: 4040 MFI
- pSTAT3 (MFI) in monocytes at 0.001 µM: 4820 MFI
- pSTAT3 (MFI) in monocytes at 0.01 µM: 4010 MFI
- pSTAT3 (MFI) in monocytes at 0.1 µM: 4430 MFI
- pSTAT3 (MFI) in monocytes at 1 µM: 4790 MFI
- pSTAT3 (MFI) in monocytes at 10 µM: 4930 MFI
- pSTAT3 (MFI) in monocytes at 100 µM: 4930 MFI
B1: hIL10Ra_VHH14-hIL2Rg_VHH19, linker GS, tag his (bispecific antibody, not shown: small tags and cut ends)
chain: QVQLQESGGGSVQAGGSLRLSCGASGYTYSSYCMGWFRQVPGKEREGVAVIDSDGSTSYADSVKGRFTISKDNGKNTLYLQMNSLKPEDTAMYYCAADLGHYRPPCGVLYLGMDYWGKGTQVTVSSGSQVQLQESGGGSVQAGGSLRLSCTASGFTFDDREMNWYRQAPGNECELVSTISSDGSTYYADSVKGRFTISQDNAKNTVYLQMDSVKPEDTAVYYCAADFMIAIQAPGAGCWGQGTQVTVSS

- pSTAT3 (MFI) in CD4 T cells at 0.0001 µM: 12200 MFI
- pSTAT3 (MFI) in CD4 T cells at 0.001 µM: 12900 MFI
- pSTAT3 (MFI) in CD4 T cells at 0.01 µM: 12500 MFI
- pSTAT3 (MFI) in CD4 T cells at 0.1 µM: 11000 MFI
- pSTAT3 (MFI) in CD4 T cells at 1 µM: 12100 MFI
- pSTAT3 (MFI) in CD4 T cells at 10 µM: 11800 MFI
- pSTAT3 (MFI) in CD4 T cells at 100 µM: 9040 MFI
- pSTAT3 (MFI) in CD8 T cells at 0.0001 µM: 7380 MFI
- pSTAT3 (MFI) in CD8 T cells at 0.001 µM: 7740 MFI
- pSTAT3 (MFI) in CD8 T cells at 0.01 µM: 7800 MFI
- pSTAT3 (MFI) in CD8 T cells at 0.1 µM: 6780 MFI
- pSTAT3 (MFI) in CD8 T cells at 1 µM: 7720 MFI
- pSTAT3 (MFI) in CD8 T cells at 10 µM: 7490 MFI
- pSTAT3 (MFI) in CD8 T cells at 100 µM: 6200 MFI
- pSTAT3 (MFI) in monocytes at 0.0001 µM: 3970 MFI
- pSTAT3 (MFI) in monocytes at 0.001 µM: 4600 MFI
- pSTAT3 (MFI) in monocytes at 0.01 µM: 4420 MFI
- pSTAT3 (MFI) in monocytes at 0.1 µM: 4420 MFI
- pSTAT3 (MFI) in monocytes at 1 µM: 4480 MFI
- pSTAT3 (MFI) in monocytes at 10 µM: 4330 MFI
- pSTAT3 (MFI) in monocytes at 100 µM: 4140 MFI
B2: hIL10Ra_VHH14-hIL2Rg_VHH19, no linker, tag his (bispecific antibody, not shown: small tags and cut ends)
chain: QVQLQESGGGSVQAGGSLRLSCGASGYTYSSYCMGWFRQVPGKEREGVAVIDSDGSTSYADSVKGRFTISKDNGKNTLYLQMNSLKPEDTAMYYCAADLGHYRPPCGVLYLGMDYWGKGTQVTVSSQVQLQESGGGSVQAGGSLRLSCTASGFTFDDREMNWYRQAPGNECELVSTISSDGSTYYADSVKGRFTISQDNAKNTVYLQMDSVKPEDTAVYYCAADFMIAIQAPGAGCWGQGTQVTVSS
